Assay results published in patent US20170291939A1 (Novartis, published 2017).
Substitutions are numbered along the chain they refer to.

T1: human IL-17A (construct not specified) (human, UniProt Q16552 24-155, limits assumed)
T1 construct: also called huIL-17A
T1 sequence: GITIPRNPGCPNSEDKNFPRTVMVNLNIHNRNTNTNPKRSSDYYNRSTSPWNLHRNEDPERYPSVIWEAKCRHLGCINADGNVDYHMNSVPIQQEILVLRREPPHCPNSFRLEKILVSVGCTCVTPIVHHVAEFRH

B1: MB454 (Fab, V domains shown)
VH: EVQLVESGGDLVQPGGSLRLSCAASGFTFSSYWMSWVRQAPGKGLEWVANIKQDGSEKYYVDSVKGRFTISRDNAKNSLYLQMNSLRAEDTAVYYCARDRGSLYYWGQGTLVTVSS
VL: AIQLTQSPSSLSASVGDRVTITCRPSQGILWALAWYQQKPGKAPKLLIYDASSLENGVPSRFSGSGSGTDFTLTISSLQPEDFATYYCQQFNSYPLTFGGGTKVEIK
notes: Fab variant of XAB1
B2: MB464 (Fab, V domains shown)
VH: B1 VH
VL: B1 VL with L30I, W31Y, A32Q
notes: Fab variant of XAB1
B3: MB458 (Fab, V domains shown)
VH: B1 VH
VL: B1 VL with L30W, W31Y, A32Q
notes: Fab variant of XAB1
B4: MB450 (Fab, V domains shown)
VH: B1 VH
VL: B1 VL with L30M, A32W
notes: Fab variant of XAB1
B5: MB433 (Fab, V domains shown)
VH: B1 VH
VL: B1 VL with L30Y, A32G
notes: Fab variant of XAB1
B6: MB434 (Fab, V domains shown)
VH: B1 VH
VL: B1 VL with L30W, A32Y
notes: Fab variant of XAB1
B7: MB444 (Fab, V domains shown)
VH: B1 VH
VL: B1 VL with A32E
notes: Fab variant of XAB1
B8: MB483 (Fab, V domains shown)
VH: B1 VH
VL: B1 VL with L30F, A32T
notes: Fab variant of XAB1
B9: MB456 (Fab, V domains shown)
VH: B1 VH
VL: B1 VL with A32H
notes: Fab variant of XAB1
B10: MB468 (Fab, V domains shown)
VH: B1 VH
VL: B1 VL with L30Y, A32E
notes: Fab variant of XAB1
B11: MB453 (Fab, V domains shown)
VH: B1 VH
VL: B1 VL with L30V, W31F, A32W
notes: Fab variant of XAB1
B12: MB435 (Fab, V domains shown)
VH: B1 VH
VL: B1 VL with L30N, A32E
B13: MB438 (Fab, V domains shown)
VH: B1 VH
VL: B1 VL with L30P, W31Y
notes: Fab variant of XAB1
B14: MB432 (Fab, V domains shown)
VH: B1 VH
VL: B1 VL with W31F
notes: Fab variant of XAB1
B15: MB448 (Fab, V domains shown)
VH: B1 VH
VL: B1 VL with L30V, A32M
notes: Fab variant of XAB1
B16: MB486 (Fab, V domains shown)
VH: B1 VH
VL: B1 VL with L30W, A32M
notes: Fab variant of XAB1
B17: MB461 (Fab, V domains shown)
VH: B1 VH
VL: B1 VL with L30Y, A32T
notes: Fab variant of XAB1
B18: MB440 (Fab, V domains shown)
VH: B1 VH
VL: B1 VL with A32Q
notes: Fab variant of XAB1
B19: MB457 (Fab, V domains shown)
VH: B1 VH
VL: B1 VL with L30I, A32S
notes: Fab variant of XAB1
B20: MB463 (Fab, V domains shown)
VH: B1 VH
VL: B1 VL with L30Y, W31F, A32E
notes: Fab variant of XAB1
B21: MB447 (Fab, V domains shown)
VH: B1 VH
VL: B1 VL with L30F, A32W
notes: Fab variant of XAB1

The binders below were run against T1, human IL-17A (construct not specified) (assay: ELISA, coated huIL-17A, long wash).

Binder	Off-rate ELISA (normalized to XAB1 Fab) [fold]
B1	34.2
B2	34.9
B3	33
B4	41.5
B5	39.7
B6	44.4
B7	48.9
B8	47.1
B9	45.1
B10	43.9
B11	43.3
B12	44.7
B13	41.5
B14	44.2
B15	40.4
B16	58.5
B17	49.8
B18	52.5
B19	34.7
B20	34.2
B21	45.5

These binders were tested against T1, human IL-17A (construct not specified) (assay: ELISA, coated huIL-17A, crude Fab extract).

Binder	Classic ELISA (normalized to XAB1 Fab) [fold]
B1	2.9
B2	2.7
B3	2.7
B4	2.9
B5	2.3
B6	2.4
B7	3.2
B8	3.1
B9	2.4
B10	2.8
B11	2.7
B12	2.7
B13	2.7
B14	2.3
B15	2.9
B16	1.9
B17	2.9
B18	2.8
B19	2.7
B20	2.7
B21	3

These binders were tested against T1, human IL-17A (construct not specified) (assay: ELISA, coated huIL-17A, then 200 nM XAB1 Fab as competitor).

Binder	Competition ELISA (normalized to XAB1 Fab) [fold]
B1	36.6
B2	36.9
B3	42.1
B4	53.3
B5	29.3
B6	39.5
B7	52.4
B8	45.2
B9	46.7
B10	60
B11	46.4
B12	44.6
B13	41.1
B14	37.3
B15	51.5
B16	64.9
B17	62.8
B18	54
B19	41
B20	31.6
B21	57
